Laboratory results as given in patent publication US20180051081A1 (published 2018).

Columns and labels:
[1] = target: T1, dog CD47 (dog, UniProt A0A8I3PM61 19-310); test: FACS, dog RBCs, supernatant 10 ng/ml
T1 construct: also called CD47 on dog RBCs
T1 sequence: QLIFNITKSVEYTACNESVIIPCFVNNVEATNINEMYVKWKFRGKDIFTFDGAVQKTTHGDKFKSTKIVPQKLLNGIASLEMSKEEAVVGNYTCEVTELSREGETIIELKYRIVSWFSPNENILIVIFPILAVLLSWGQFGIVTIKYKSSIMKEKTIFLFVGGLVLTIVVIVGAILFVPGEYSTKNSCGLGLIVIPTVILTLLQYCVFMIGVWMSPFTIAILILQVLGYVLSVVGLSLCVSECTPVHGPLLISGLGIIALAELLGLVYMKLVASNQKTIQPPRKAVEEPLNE
Protocol: (§1) RBCs are incubated for 60 minutes on ice with tissue culture supernatants containing the secreted humanized antibodies at a concentration of 10 ng/ml in a solution of phosphate buffered saline, pH 7.2, 2.5 mM EDTA (PBS+E), or with various concentrations of purified antibodies. Cells are then washed with cold PBS+E, and incubated for an additional hour on ice with FITC labeled donkey anti-human antibody (Jackson Immuno Research Labs, West Grove, Pa.; Catalogue #709-096-149) in PBS+E. Cells are then washed with PBS+E, and antibody binding is analyzed using a BD FACSAria Cell Sorter (Becton Dickinson) or a C6 Accuri Flow Cytometer (Becton Dickinson). Antibody binding is quantitated by comparison of mean fluorescence values relative to that of chimeric antibody >VxP037-01LC (SEQ ID NO:7))/>VxP037-01HC (SEQ ID NO:57). The mean fluorescence value for each antibody is divided by the mean fluorescence value for the chimeric antibody.

[2] = target: T2, pig CD47 (pig, UniProt Q9GKE8 19-303); test: FACS, pig RBCs, supernatant 10 ng/ml
T2 construct: whole, on cells; also called CD47 on porcine RBCs
T2 sequence (looked up): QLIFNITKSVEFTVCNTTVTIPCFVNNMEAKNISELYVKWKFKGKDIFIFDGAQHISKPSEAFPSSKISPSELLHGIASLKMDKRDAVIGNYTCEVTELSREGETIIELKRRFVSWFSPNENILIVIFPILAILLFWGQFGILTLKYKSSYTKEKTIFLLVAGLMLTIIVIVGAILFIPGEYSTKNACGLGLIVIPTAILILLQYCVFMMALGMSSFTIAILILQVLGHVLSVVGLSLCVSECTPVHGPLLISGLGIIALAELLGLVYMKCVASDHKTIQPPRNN
Protocol: as §1

[3] = target: T3, rat CD47 (rat, UniProt P97829 19-303); test: FACS, rat RBCs, supernatant 10 ng/ml
T3 construct: whole, on cells; also called CD47 on rat RBCs
T3 sequence (looked up): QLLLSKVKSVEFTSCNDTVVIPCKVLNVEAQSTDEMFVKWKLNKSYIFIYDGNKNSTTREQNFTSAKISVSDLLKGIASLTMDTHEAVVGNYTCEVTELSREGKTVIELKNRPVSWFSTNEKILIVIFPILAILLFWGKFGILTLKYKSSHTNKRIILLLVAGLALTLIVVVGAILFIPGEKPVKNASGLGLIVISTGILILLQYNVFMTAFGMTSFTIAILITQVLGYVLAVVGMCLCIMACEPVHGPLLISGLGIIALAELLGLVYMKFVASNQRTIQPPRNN
Protocol: as §1

[4] = target: T4, human CD47 (human, UniProt Q08722 19-323); test: FACS, human RBCs, supernatant 10 ng/ml
T4 construct: whole, on cells; also called CD47 on human RBCs; CD47 on OV10 cells
T4 sequence (Q08722 19-323): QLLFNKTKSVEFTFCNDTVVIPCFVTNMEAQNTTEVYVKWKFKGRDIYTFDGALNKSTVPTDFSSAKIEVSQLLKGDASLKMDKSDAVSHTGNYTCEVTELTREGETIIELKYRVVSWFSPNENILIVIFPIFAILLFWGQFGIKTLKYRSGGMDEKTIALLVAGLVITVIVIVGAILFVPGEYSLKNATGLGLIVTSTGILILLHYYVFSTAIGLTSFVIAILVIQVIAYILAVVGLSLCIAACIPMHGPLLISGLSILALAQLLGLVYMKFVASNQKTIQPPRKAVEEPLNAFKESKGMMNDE
Protocol: as §1

[5] = target: T5, mouse CD47 (mouse, UniProt Q61735 19-303); test: FACS, mouse RBCs, supernatant 10 ng/ml
T5 construct: whole, on cells; also called CD47 on mouse RBCs; CD47 on 4T1 cells
T5 sequence (looked up): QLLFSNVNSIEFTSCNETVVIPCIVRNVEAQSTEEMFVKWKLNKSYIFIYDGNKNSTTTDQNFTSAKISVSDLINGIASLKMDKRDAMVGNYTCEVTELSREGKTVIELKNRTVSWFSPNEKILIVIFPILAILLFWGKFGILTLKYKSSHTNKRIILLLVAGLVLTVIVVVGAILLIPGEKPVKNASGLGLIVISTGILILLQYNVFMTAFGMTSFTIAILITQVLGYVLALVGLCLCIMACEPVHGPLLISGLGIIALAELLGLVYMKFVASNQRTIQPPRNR
Protocol: as §1

| mean fluorescence relative to chimera [1] | mean fluorescence relative to chimera [2] | mean fluorescence relative to chimera [3] | mean fluorescence relative to chimera [4] | mean fluorescence relative to chimera [5] | Binder |
| --- | --- | --- | --- | --- | --- |
| 1.5 | 1.2 | 2.2 | 1 | 1.3 | Clone 18 (pVxK7b-037-hum18-LC / pVxK7b-037-hum18-HC) (antibody, human IgG1, kappa, V domains shown) VH: EVQLVQSGAEVKKPGESLRISCKGSGYTFTNYYVFWIRQSPSRGLEWLGDINPVNGDTNFNEKFKNRVTITADKSTSTAYMELSSLRSEDTAVYYCARGGYTMDYWGQGTLVTVSS VL: EIVLTQSPATLSVSPGERATLSCRSSQSLVHSNGNTYLHWYQQKPGQAPRLLIYKVSYRFSGVPSRFSGSGSGTDFTFTISSLEAEDAATYYCSQNTHVPRTFGQGTKVEIKR |
| 1.3 | 1.3 | 2.1 | 0.8 | 0.9 | Clone 17 (pVxK7b-037-hum17-LC / pVxK7b-037-hum17-HC) (antibody, human IgG1, kappa) light: AIQLTQSPSSLSASVGDRVTITCRSSQSLVHSNGNTYLHWYQQKPGQAPRLLIYKVSYRFSGVPDRFSGSGSGTDFTLKISRVEAEDVGVYYCSQNTHVPRTFGQGTKVEIKRTVAAPSVFIFPPSDEQLKSGTASVVCLLNNFYPREAKVQWKVDNALQSGNSQESVTEQDSKDSTYSLSSTLTLSKADYEKHKVYACEVTHQGLSSPVTKSFNRGEC heavy: not shown |
